B1: TCAP (parent)
chain: YQRVLPLPIFTPAKMGATKEERED
B2: PDLIM4 (parent)
chain: FLDERLYCESHAKARVKPPEGYDV

Variants of: B1
Experiment: protein stability index of a GFP-peptide fusion (GPS, HEK-293T) (PSI 1-6); higher = more stable
Conditions: c terminus: a fixed tail appended
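Further: lentivirally expressed fusions sorted by FACS into six bins by GFP to DsRed ratio, PSI derived from sequencing read proportions per bin multiplied by bin number.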

Protein stability index of substitutions, site by site:
Q2: K 4.35 | M 2.54 | W 2.59 | G 1.41 | D 3.35 | N 2.35 | A 1.92 | R 3.9 | F 3.21 | T 1.89 | V 1.99 | E 3.53 | S 1.87 | Y 2.93 | L 2.58 | C 1.99 | I 2.08 | H 2.07 | P 1.55
L5: D 3.06 | R 2.7 | K 2.13 | W 2.81 | Q 2.03 | G 2.89 | P 2.33 | A 2.05 | F 2.52 | C 1.86 | T 1.98 | N 1.8 | S 1.97 | E 2.42 | H 2.08 | I 1.87 | V 1.96 | M 1.9 | Y 2.37
I9: P 4.02 | R 4.16 | V 2.88 | Q 3.74 | M 3.07 | N 4.47 | C 3.04 | S 3.79 | F 2.31 | H 2.83 | E 4.51 | A 3.96 | D 3.63 | W 2.2 | G 3.79 | L 2.41 | T 4.02 | K 3.96 | Y 2.58
T11: F 2.25 | E 2.52 | D 3.96 | C 1.79 | A 1.87
R3: D 2.03 | T 2.05 | A 2.15 | N 2.46 | E 2.03 | P 1.55 | L 1.86 | V 2.09 | K 2.5 | I 1.73 | W 2.69 | Q 2.78 | F 2.63 | G 3 | S 2.3 | M 3.43 | H 1.88 | C 3.12 | Y 4.55
P6: D 2.62 | T 2.05 | H 2.11 | M 1.65 | A 2.09 | Y 2.35 | L 1.73 | C 1.72 | W 1.56 | Q 1.91 | N 1.35 | K 1.89 | S 1.82 | G 1.9 | F 2.25 | E 2.22 | R 1.66 | V 2.17 | I 2.19
V4: Y 2.26 | N 1.83 | L 2.18 | Q 1.9 | G 2.82 | P 2.67 | F 2.27 | H 1.37 | A 1.71 | E 1.93 | R 1.7 | W 2.55 | D 1.52 | T 1.88 | C 2 | I 2.07 | S 1.72 | M 1.53 | K 1.8
L7: E 2.61 | F 1.76 | Q 2.56 | H 4.72 | G 2.46 | T 1.73 | D 2.1 | V 2.4 | K 3.33 | R 3.08 | C 1.42 | A 1.75 | N 1.54 | S 2.31 | M 2.43 | I 2.19 | Y 2.71 | W 2.86 | P 2.59
F10: S 4.06 | P 4.14 | L 3.73 | K 4.08 | I 3.72 | E 4.33 | C 3.63 | Q 4.5 | V 3.65 | T 4.04 | A 4.3 | D 4.32 | H 3.94 | G 4.44 | M 3.71 | Y 2.48 | R 4.18 | N 4.05
Y1: D 5.35 | W 2.93 | Q 5.25 | T 4.79 | L 4.21 | P 5.44 | S 5.4 | R 4.53 | H 4.68 | G 4.97 | F 2.09 | E 5.33 | V 4.33 | K 5.06 | A 5.43 | C 4.53 | I 3.9 | M 4.64 | N 5.03
P8: G 1.37 | H 2.15 | Q 2.12 | R 1.88 | I 2.15 | V 2 | M 2.36 | K 2.18 | L 1.64 | D 1.57 | W 2.73 | Y 2.51 | F 1.45 | A 1.96 | N 2.11 | E 2.46 | C 2.62 | T 2.32

Variants of: B2
Experiment: as above
Conditions: c terminus: a fixed tail appended

Protein stability index of substitutions, site by site:
G21: Q 2.4 | L 1.77 | A 1.83 | S 1.69 | D 2.94 | F 1.72 | H 1.59
R15: E 1.34 | D 1.93 | L 2.41 | G 1.7 | P 1.26
A12: Y 1.77 | F 3.29 | R 1.82 | G 2.68
Y7: N 4.26 | Q 4.26 | R 3.99 | L 3.18 | T 5.4 | A 2.63 | M 3.6 | K 4.06 | G 2.04
H11: T 1.99 | R 1.79 | S 1.98 | D 2.39 | I 2.19 | F 1.48 | Q 1.34 | L 1.48 | E 1.34 | V 1.72
E4: Y 2.02
V16: T 3.71 | R 1.5 | C 1.43 | P 1.64 | M 1.53 | D 2.14 | S 3.79
A14: E 1.31 | F 1.65
E9: V 1.83 | S 1.97 | H 2.13 | L 2.34 | G 1.74
F1: Q 4.58 | M 4.29 | E 4.68 | A 4.23 | P 5 | R 4.28
P18: F 2.16 | M 1.1 | Y 2.46
L2: D 4.28 | V 2.42 | F 3.46 | H 2.24 | Q 2.12
Y22: T 2.29 | C 2.75 | E 2.43 | K 2.46 | D 1.53 | R 2.71 | G 2.68 | I 3 | S 1.04 | L 1.15 | M 1.37 | W 1.28
L6: F 3.03 | Q 2.5 | K 2.09 | R 1.45 | P 1.7 | D 4.54 | V 1.59
P19: W 2.75 | I 1.86 | E 1.05 | H 1.72 | G 2.01 | C 2.26 | R 2.65
K13: L 1.45 | D 1.32 | M 2.85 | Q 1.61 | Y 2.63 | P 2.24
D23: G 1.14 | H 3.11 | W 1.81 | P 2.3 | K 2.53 | Y 2.45 | A 1.48 | Q 2.23
C8: K 1.58 | I 1.41 | F 2.3 | T 2.62 | S 2.39 | L 2.26 | N 2.59 | M 1.64 | H 2.71
V24: T 1.53 | A 2.09 | G 1.51 | S 2.82
S10: D 2.01 | L 2.69 | F 1.61
D3: P 2.64 | H 2.39 | V 2.5
E20: T 2.26 | S 1.4 | M 2.03 | Q 3.09
K17: E 2.08 | P 2.25 | S 1.48 | M 2.53 | H 1.88 | V 2.62 | Q 1.86
R5: T 1.3 | K 1.66 | M 2.33 | G 2.47 | P 2.98 | Y 1.42 | I 2.24

— the supplement of paper PMC10567573
